B1: human FGF 17: human-derived fibroblast growth factor 17, commercial product of Pepro Tech (protein)
chain: TQGENHPSPNFNQYVRDQGAMTDQLSRRQIREYQLYSRTSGKHVQVTGRRISATAEDGNKFAKLIVETDTFGSRVRIKGAESEKYICMNKRGKLIGKPSGKSKDCVFTEIVLENNYTAFQNARHEGWFMAFTRQGRPRQASRSRQNQREAHFIKRLYQGQLPFPNHAEKQKQFEFVGSAPTRRTKRTRRPQPLT
B2: human FGF 10: human-derived fibroblast growth factor 10, commercial product of Pepro Tech (protein)
chain: LGQDMVSPEATNSSSSSFSSPSSAGRHVRSYNHLQGDVRWRKLFSFTKYFLKIEKNGKVSGTKKENCPYSILEITSVEIGVVAVKAINSNYYLAMNKKGKLYGSKEFNNDCKLKERIEENGYNTYASFNWQHNGRQMYVALNGKGAPRRGQKTRRKNTSAHFLPMVVHS
B3: human FGF 8: human-derived fibroblast growth factor 8, commercial product of Pepro Tech (protein)
chain: QVTVQSSPNFTQHVREQSLVTDQLSRRLIRTYQLYSRTSGKHVQVLANKRINAMAEDGDPFAKLIVETDTFGSRVRVRGAETGLYICMNKKGKLIAKSNGKGKDCVFTEIVLENNYTALQNAKYEGWYMAFTRKGRPRKGSKTRQHQREVHFMKRLPRGHHTTEQSLRFEFLNYPPFTRSLRGSQRTWAPEPR
B4: human FGF 7 (KGF): human-derived fibroblast growth factor 7 (KGF), commercial product of Pepro Tech (protein)
chain: CNDMTPEQMATNVNCSSPERHTRSYDYMEGGDIRVRRLFCRTQWYLRIDKRGKVKGTQEMKNNYNIMEIRTVAVGIVAIKGVESEFYLAMNKEGKLYAKKECNEDCNFKELILENHYNTYASAKWTHNGGEMFVALNQKGIPVRGKKTKKEQKTAHFLPMAIT

Columns and labels:
[1] = tested on: ΔG/SEAP/HCV E1E2; test: Effects of FGF family members on infectivity of pseudotyped HCV to HepG2 cells (SEAP reporter); format: cell-based; details: for IC50 ΔG/SEAP/HCV E1E2: growth factor added 1 hour before virus, SEAP in supernatant after 24 hours; for infection of ΔG/SEAP/HCV E1E2: result in words
[2] = tested on: ΔG/SEAP/HCV E1E2; test: Effects of solubilized FGFR-1 to FGFR-4 (FGFR/Fc) on infectivity of pseudotyped HCV to HepG2 cells; format: cell-based; details: FGFR/Fc mixed with virus 1 hour before inoculation, FIG. 5

| Molecule | IC50 ΔG/SEAP/HCV E1E2 [1] | infection of ΔG/SEAP/HCV E1E2 [1] | infectivity of ΔG/SEAP/HCV E1E2 [2] |
| --- | --- | --- | --- |
| human FGF 18: human-derived fibroblast growth factor 18, commercial product of Pepro Tech | >10 µg/mL | – | – |
| human FGF 2 (basic): human-derived fibroblast growth factor 2 (basic), commercial product of Pepro Tech | 1.36 µg/mL | inhibited | – |
| FGFR-4 | – | – | inhibited |
| human FGF 20: human-derived fibroblast growth factor 20, commercial product of Pepro Tech | >10 µg/mL | – | – |
| B1 | 7.41 µg/mL | inhibited | – |
| B2 | >10 µg/mL | – | – |
| B3 | 8.51 µg/mL | inhibited | – |
| B4 | 2.32 µg/mL | inhibited | – |

Source: US20080125362A1, “Method of screening compound preventing cells from infection with Hepatitis C virus (HCV)” (Japan Tobacco Inc., priority 2004, published 2008)
